# Measured values from patent publication US20110165161A1, “ANTI-EPCAM ANTIBODIES THAT INDUCE APOPTOSIS OF CANCER CELLS AND METHODS USING SAME” (priority 2009, published 2011).
# Numbering of substitutions follows the chain as printed.
# T1: human EpCAM (epithelial cell adhesion/activating molecule) (human, UniProt P16422 24-314)
# T1 construct: also called hEpCAM; CHO/EpCAM
# T1 sequence: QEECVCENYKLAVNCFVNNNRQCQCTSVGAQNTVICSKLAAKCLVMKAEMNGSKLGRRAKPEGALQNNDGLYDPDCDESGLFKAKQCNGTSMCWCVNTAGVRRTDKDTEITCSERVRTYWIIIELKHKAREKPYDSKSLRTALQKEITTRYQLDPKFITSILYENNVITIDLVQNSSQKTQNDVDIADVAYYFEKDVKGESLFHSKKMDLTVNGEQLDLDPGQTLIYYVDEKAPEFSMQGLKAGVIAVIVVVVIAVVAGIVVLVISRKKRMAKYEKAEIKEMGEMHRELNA
# T2: EGFI-Cr1 Q47A (human, UniProt P16422 24-63)
# T2 construct: not shown: the constant region of human immunoglobulin gamma 1 heavy chain (Cr1) fused at the C-terminus
# T2 chain: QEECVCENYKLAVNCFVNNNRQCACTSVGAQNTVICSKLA
# T3: EGFI-Cr1 F39A (human, UniProt P16422 24-63)
# T3 construct: not shown: The fused constant region of human immunoglobulin gamma 1 heavy chain (Cr1)
# T3 chain: T2 chain with F16A, A24Q
# T4: EGFI-Cr1 N41A (human, UniProt P16422 24-63)
# T4 construct: not shown: The fused constant region of human immunoglobulin gamma 1 heavy chain (Cr1)
# T4 chain: T2 chain with N18A, A24Q
# T5: EGFI-Cr1 Q24A (human, UniProt P16422 25-63)
# T5 construct: not shown: The fused constant region of human immunoglobulin gamma 1 heavy chain (Cr1)
# T5 chain: T2 chain with Q1A, A24Q
# T6: EGFI-Cr1 T49A (human, UniProt P16422 24-63)
# T6 construct: not shown: the constant region of human immunoglobulin gamma 1 heavy chain (Cr1) fused at the C-terminus
# T6 chain: T2 chain with A24Q, T26A
# T7: EGFI-Cr1 Q45A (human, UniProt P16422 24-63)
# T7 construct: not shown: the constant region of human immunoglobulin gamma 1 heavy chain (Cr1) fused at the C-terminus
# T7 chain: T2 chain with Q22A, A24Q
# T8: EGFI-Cr1 R44G (human, UniProt P16422 24-63)
# T8 construct: not shown: the constant region of human immunoglobulin gamma 1 heavy chain (Cr1) fused at the C-terminus
# T8 chain: T2 chain with R21G, A24Q
# T9: EGFI-Cr1 V40E (human)
# T9 construct: not shown: The fused constant region of human immunoglobulin gamma 1 heavy chain (Cr1)
# T9 chain: T2 chain with V17E, A24Q
# T10: EGFI-Cr1 E26D (human, UniProt P16422 24-63)
# T10 construct: not shown: The fused constant region of human immunoglobulin gamma 1 heavy chain (Cr1)
# T10 chain: T2 chain with E3D, A24Q
# T11: EGFI-Cr1 E25K (human, UniProt P16422 24-63)
# T11 construct: not shown: The fused constant region of human immunoglobulin gamma 1 heavy chain (Cr1)
# T11 chain: T2 chain with E2K, A24Q
# T12: EGFI-Cr1 N43A (human, UniProt P16422 24-63)
# T12 construct: not shown: the constant region of human immunoglobulin gamma 1 heavy chain (Cr1) fused at the C-terminus
# T12 chain: T2 chain with N20A, A24Q
# T13: EGFI-Cr1 N42E (human, UniProt P16422 24-63)
# T13 construct: not shown: the constant region of human immunoglobulin gamma 1 heavy chain (Cr1) fused at the C-terminus
# T13 chain: T2 chain with N19E, A24Q
# T14: EGFI-Cr1 N37R (human)
# T14 construct: not shown: The fused constant region of human immunoglobulin gamma 1 heavy chain (Cr1)
# T14 chain: T2 chain with N14R, A24Q
# T15: EGFI-Cr1 A35T (human, UniProt P16422 24-63)
# T15 construct: not shown: The fused constant region of human immunoglobulin gamma 1 heavy chain (Cr1)
# T15 chain: T2 chain with A12T, A24Q
# B1: murine monoclonal antibody 4D2 (antibody, mouse IgG1, V domains shown)
# VH: EVQLVESGGDLVKPGGSLKLSCAASGFAFDSYGMSWVRQTPGKRLEWVATISSGGYYTYYQDSVKGRFTTSRDNAKNTLDLQMSSLKSEDSAIYYCARRGNYDVDYYAMDYWGQGTSVTVSS
# VL: DVVMTQTPLSLPVSLGDQASISCRSSQSLVHSNGNTYLHWYLQKPGQSPKLLIYKVSNRFSGVPDRFSGSGSGTDFTLRISRVEAEDLGVYFCSQSTHVPPWTFGGGTKLEIKR
# notes: Mouse IgG1, kappa, from hybridoma; also called m338-4D2.20
# Assays:
# [1] = target: T1, human EpCAM (epithelial cell …); assay: flow cytometry, CHO/EpCAM cells, 0.1 µg/ml antibody
# Description: A 300× dilution of human cell hyper-immune serum (HPS 300×) was used as binding positive control for both cell lines here. After 1 hr incubation at 4° C., cells were washed twice with 200 μl FACS buffer (1×PBS containing 1% FBS), stained with 100 μl of 1 μg/ml goat-anti-mouse IgG-PE (Southern Biotech, Cat. No. 1032-09) in FACS buffer and then incubated at 4° C. for 30 min. Cells were washed thrice with FACS buffer and analyzed by flow cytometry (BD LSR, BD Life Sciences).
# [2] = target: T1, human EpCAM (epithelial cell …); assay: cell-based or functional assay
# EGFI-Cr1 Q47A = target: T2, EGFI-Cr1 Q47A; assay: direct ELISA, coated EGFI-Cr1 fusion, 0.1 µg/ml antibody
# Description: (§1) A direct ELISA was used for testing the reactivity of anti-EpCAM antibodies toward variant EpCAM mutants. Briefly, purified EpCAM EGF-1 fusion proteins (WT, Q24A, E25K, E26D, A35T, N37R, F39A, V40E, N41A, N42E, N43A, R44G, Q45A, Q47A or T49A) and irrelevant control (CEA-Cr1) were pre-diluted to 0.5 μg/ml in coating buffer (8.4 g NaHCO₃, 3.4 g Na₂CO₃ in 1 L H₂O, pH 9.5) and aliquoted (100 μl/well) into 96-well plates. […] Plates were then washed 3 times with PBST followed by the addition of the enzyme substrate TMB (BD Biosciences, Cat. No. 555214). […] The optical densities at 450 nm wavelength were measured on an ELISA plate reader.
# [3] = target: T16, EGFI-Cr1 wild type (first EGF-like repeat of human EpCAM fused to the constant region of human immunoglobulin … (human, UniProt P01857-1 99-330 = IgG part)); assay: as above
# T16 construct: cDNA covered aa 1-63; Expressed in COS-7 cells; also called WT; EpCAM EGF-1 fusion protein WT
# Description: as §1
# EGFI-Cr1 F39A = target: T3, EGFI-Cr1 F39A; assay: as above
# Description: as §1
# EGFI-Cr1 N41A = target: T4, EGFI-Cr1 N41A; assay: as above
# Description: as §1
# EGFI-Cr1 Q24A = target: T5, EGFI-Cr1 Q24A; assay: as above
# Description: as §1
# EGFI-Cr1 T49A = target: T6, EGFI-Cr1 T49A; assay: as above
# Description: as §1
# EGFI-Cr1 Q45A = target: T7, EGFI-Cr1 Q45A; assay: as above
# Description: as §1
# EGFI-Cr1 R44G = target: T8, EGFI-Cr1 R44G; assay: as above
# Description: as §1
# EGFI-Cr1 V40E = target: T9, EGFI-Cr1 V40E; assay: as above
# Description: as §1
# EGFI-Cr1 E26D = target: T10, EGFI-Cr1 E26D; assay: as above
# Description: as §1
# EGFI-Cr1 E25K = target: T11, EGFI-Cr1 E25K; assay: as above
# Description: as §1
# EGFI-Cr1 N43A = target: T12, EGFI-Cr1 N43A; assay: as above
# Description: as §1
# EGFI-Cr1 N42E = target: T13, EGFI-Cr1 N42E; assay: as above
# Description: as §1
# EGFI-Cr1 N37R = target: T14, EGFI-Cr1 N37R; assay: as above
# Description: as §1
# EGFI-Cr1 A35T = target: T15, EGFI-Cr1 A35T; assay: as above
# Description: as §1
# [4] = target: T1, human EpCAM (epithelial cell …); assay: cell-based or functional assay; remark: listed apart in the source
binder,measurement,setting,value
B1,MFI,[1],1740 MFI
same,"% of Annexin V + PI staining (untreated background subtracted), NCI-H358, 10 µg/ml mAb, Exp1",[2],43%
same,"% of Annexin V + PI staining (untreated background subtracted), NCI-H358, 10 µg/ml mAb, Exp2",[2],41%
same,"% of Annexin V + PI staining (untreated background subtracted), NCI-H358, 10 µg/ml mAb, Exp3",[2],45%
same,"% of Annexin V + PI staining (untreated background subtracted), NCI-H358, 10 µg/ml mAb, Exp4",[2],46%
same,"% of Annexin V + PI staining (untreated background subtracted), NCI-H358, 10 µg/ml mAb, Exp5",[2],43%
same,relative binding activity (% of WT),EGFI-Cr1 Q47A,23%
same,relative binding activity (% of WT),[3],100%
same,relative binding activity (% of WT),EGFI-Cr1 F39A,11%
same,relative binding activity (% of WT),EGFI-Cr1 N41A,0%
same,relative binding activity (% of WT),EGFI-Cr1 Q24A,41%
same,relative binding activity (% of WT),EGFI-Cr1 T49A,63%
same,relative binding activity (% of WT),EGFI-Cr1 Q45A,4%
same,relative binding activity (% of WT),EGFI-Cr1 R44G,1%
same,relative binding activity (% of WT),EGFI-Cr1 V40E,1%
same,relative binding activity (% of WT),EGFI-Cr1 E26D,52%
same,relative binding activity (% of WT),EGFI-Cr1 E25K,2%
same,relative binding activity (% of WT),EGFI-Cr1 N43A,57%
same,relative binding activity (% of WT),EGFI-Cr1 N42E,82%
same,relative binding activity (% of WT),EGFI-Cr1 N37R,64%
same,relative binding activity (% of WT),EGFI-Cr1 A35T,27%
same,"% Annexin V/PI-positive cells, DLD-1, 1.0 µg/ml mAb",[4],31%
same,"% Annexin V/PI-positive cells, DLD-1, 3.0 µg/ml mAb",[4],51%
same,"% Annexin V/PI-positive cells, DLD-1, 10 µg/ml mAb",[4],62%
same,"% Annexin V/PI-positive cells, FaDu, 1.0 µg/ml mAb",[4],37%
same,"% Annexin V/PI-positive cells, FaDu, 3.0 µg/ml mAb",[4],43%
same,"% Annexin V/PI-positive cells, FaDu, 10 µg/ml mAb",[4],46%
same,"% Annexin V/PI-positive cells, LNCaP, 1.0 µg/ml mAb",[4],49%
same,"% Annexin V/PI-positive cells, LNCaP, 3.0 µg/ml mAb",[4],52%
same,"% Annexin V/PI-positive cells, LNCaP, 10 µg/ml mAb",[4],50%
same,"% Annexin V/PI-positive cells, NCI-H520, 1.0 µg/ml mAb",[4],24%
same,"% Annexin V/PI-positive cells, NCI-H520, 3.0 µg/ml mAb",[4],30%
same,"% Annexin V/PI-positive cells, NCI-H520, 10 µg/ml mAb",[4],32%
same,"% Annexin V/PI-positive cells, NCI-N87, 1.0 µg/ml mAb",[4],49%
same,"% Annexin V/PI-positive cells, NCI-N87, 3.0 µg/ml mAb",[4],52%
same,"% Annexin V/PI-positive cells, NCI-N87, 10 µg/ml mAb",[4],55%
same,"% Annexin V/PI-positive cells, NIH:OVCAR-3, 1.0 µg/ml mAb",[4],40%
same,"% Annexin V/PI-positive cells, NIH:OVCAR-3, 3.0 µg/ml mAb",[4],51%
same,"% Annexin V/PI-positive cells, NIH:OVCAR-3, 10 µg/ml mAb",[4],56%
same,"% Annexin V/PI-positive cells, T-47D, 1.0 µg/ml mAb",[4],35%
same,"% Annexin V/PI-positive cells, T-47D, 3.0 µg/ml mAb",[4],44%
same,"% Annexin V/PI-positive cells, T-47D, 10 µg/ml mAb",[4],45%
